Reference: patent US20050214309A1, “Methods and compositions for modulating transcription factor activity” (published 2005)

Target: T1, ATF1 (Homo sapiens, UniProt P18846 SEQ:1-271)
T1 sequence: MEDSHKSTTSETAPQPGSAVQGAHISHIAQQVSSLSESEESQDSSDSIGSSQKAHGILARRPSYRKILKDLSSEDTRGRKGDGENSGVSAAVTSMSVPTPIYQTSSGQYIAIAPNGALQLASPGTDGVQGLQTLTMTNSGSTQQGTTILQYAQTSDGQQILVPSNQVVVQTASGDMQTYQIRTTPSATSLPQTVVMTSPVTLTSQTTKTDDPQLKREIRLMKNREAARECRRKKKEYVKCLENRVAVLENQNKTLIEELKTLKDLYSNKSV
Assay: competition; 100-fold excess unlabeled AP1 did not diminish ATF1/CRE complex
Conditions: tags: E. coli pET-11d, DNA-cellulose purified

B1: AP1 oligonucleotide (dsDNA)
DNA 1: CGCTTGATGAGTCAGCCGGAA
DNA 2: TTCCGGCTGACTCATCAAGCG
**Q.** Does B1 bind?
**A.** no binding
